Experiments:
[1] = target: the molecule itself; test: cryo-EM structure; single-particle cryo-EM of protein purified in GDN detergent (20 mM Tris, 150 mM NaCl, 0.04% GDN), 3.0 mg/mL; samples at pH 5.0 and 8.0 (CeOTOP8), pH 5.0, 7.0, 8.0 and 9.0 (mOTOP2), pH 8.0 (mOTOP2 M374W)
[2] = target: the molecule itself; test: SEC; loss-of-function mutants of mOTOP2 purified as a stable dimer (Supplementary Fig. 10b, not shown); the general purification ends with Superose 6 10/300 GL in 20 mM Tris pH 8.0, 150 mM NaCl, 0.04% GDN

Protein | stoichiometry N [1] | stoichiometry N [2]
Caenorhabditis elegans Otopetrin-like 8 (CeOTOP8), wild type, full length (natural protein, UniProt G5EDX5 1-619, looked up, Otopetrin-like 8 (CeOTOP8), Caenorhabditis elegans; wild-type full-length channel; the AlphaFold model AF-G5EDX5-F1 was the initial model; A thrombin cleavage site stood between the protein and the C-terminal 10x His tag; residues of the site may remain after digestion; also called WT CeOTOP8; source: HEK293F cells (BacMam system), purified (Ni-NTA, thrombin digestion on column, Superose 6 SEC in …)) MLMVDEQLKIGATPMYSPSHNPIVIADDMEKGGSDSDSLPSSPTHHHELYRRPWIHEPRATNFFVRLITSLYALILTIISLVVEVSPTWRTDMWLAETIFYISMYGVGILFFAYCYIFIIYPGPYNQLISVLRKYKIIKNSEVWFIMQSQHNGEGAGTLYLRLGALFFGSVGIVLFGLELFLCIENVACKKVAIAKMIVAIVFTFIQMHFIFCNSKITVNSSRKIVAFGMMHLISVNLWTWFRFVLAKQEAKAHKKAQLKQTFRKYYSSSSSSSSEEIHELISAVLNSTLNNTPATKTMEPVASRLFALEHFGDVATFLTTCIVEYSLIGAAIMFILWKSIGQNNHQQSNSGKRKVKMRIDCSSSSTGLFAGIIFLIGSLVSMGMYTIFESLRNSSGAQLVFGIVDLSLFSIALGACIIGLWRMRHLQYRLHAHGEVIDEILLIIGLIGEILYCAVGIDVFITCRRSADLTVSALPAFVFVIRMIQVVVQAAFILTTSRLRCLSKYSMKYKPGKEIITFLLVSNVTLFVFHTFEGMKSSFGFSSKAATQYNYIIYAVGPLLVFYRFHSSACLAEIWKHTYSTKSNEYDHEHMSLSDSNLTAITPISDIKEIPSPQLLKH | 2 | –
Mus musculus Otopetrin 2 (mOTOP2), wild type (natural protein, Otopetrin 2 (mOTOP2), Mus musculus; wild type; the AlphaFold model AF-Q80SX5-F1 was the initial model; N-terminal 10x His tag, then GFP, then a thrombin cleavage site; residues of the site may remain after digestion; also called mouse OTOP2; WT mOTOP2; source: HEK293F cells (BacMam system), purified (Ni-NTA, thrombin digestion on column, Superose 6 SEC in GDN); not shown: His10, N-terminal, …) MSEELVPHPNESLPGPRASPREVWKKGGRLLSVLLAVNVLLLACTLISGGAFNKVAVYDTDVFALLTTMMLLAALWIVFYLLRTARCPDAVPYRDAHAGPIWLRGGLVLFGICTLVMDVFKTGYYSSFFECQSAIKILHPIIQAVFVIVQTYFLWISAKDCIHTHLDLTRCGLMFTLATNLAIWMAAVVDESVHQAHSYSGSHGNTSHTRLNPDSKRAGGAAEEDPCLCSTAICQIFQQGYFYLYPFNIEYSLFASTMLYVMWKNVGRLLASTHGHGHTPSRVSLFRETFFAGPVLGLLLFVVGLAVFILYEVQVSGERGHTRQALVIYYSFNIVCLGLMTLVSLSGSVIYRFDRRAMDHHKNPTRTLDVALLMGAALGQYAISYYSIVAVVVGSPRDLQGALNLSHALLMIAQHTFQNVFIIESLHRGPPGAEPREMPPKEPCQGITFANLDAIRTLPSCPPTPRLVIPNLESPQEAVAIISAPRCHWRRRCLKDISLFLLLCNVILWIMPAFGARPHFSNTVEVDFYGYSLWAAIVNICLPFGIFYRMHAVSSLLEVYVLS | 2 | –
mOTOP2 L30W (natural protein, Mus musculus, Otopetrin 2 (mOTOP2), Mus musculus, with the point mutation L30W on TM1; same construct as the wild-type channel; The general purification protocol removes His10-GFP with thrombin; also called mOTOP2 L30W loss-of-function mutant; source: HEK293F cells (pEZTBM vector, same construct as the wild type), purified) MSEELVPHPNESLPGPRASPREVWKKGGRWLSVLLAVNVLLLACTLISGGAFNKVAVYDTDVFALLTTMMLLAALWIVFYLLRTARCPDAVPYRDAHAGPIWLRGGLVLFGICTLVMDVFKTGYYSSFFECQSAIKILHPIIQAVFVIVQTYFLWISAKDCIHTHLDLTRCGLMFTLATNLAIWMAAVVDESVHQAHSYSGSHGNTSHTRLNPDSKRAGGAAEEDPCLCSTAICQIFQQGYFYLYPFNIEYSLFASTMLYVMWKNVGRLLASTHGHGHTPSRVSLFRETFFAGPVLGLLLFVVGLAVFILYEVQVSGERGHTRQALVIYYSFNIVCLGLMTLVSLSGSVIYRFDRRAMDHHKNPTRTLDVALLMGAALGQYAISYYSIVAVVVGSPRDLQGALNLSHALLMIAQHTFQNVFIIESLHRGPPGAEPREMPPKEPCQGITFANLDAIRTLPSCPPTPRLVIPNLESPQEAVAIISAPRCHWRRRCLKDISLFLLLCNVILWIMPAFGARPHFSNTVEVDFYGYSLWAAIVNICLPFGIFYRMHAVSSLLEVYVLS | – | 2
mOTOP2 V370W (natural protein, Mus musculus, Otopetrin 2 (mOTOP2), Mus musculus, with the point mutation V370W on TM9; same construct as the wild-type channel; The general purification protocol removes His10-GFP with thrombin; also called mOTOP2 V370W loss-of-function mutant; source: HEK293F cells (pEZTBM vector, same construct as the wild type), purified) MSEELVPHPNESLPGPRASPREVWKKGGRLLSVLLAVNVLLLACTLISGGAFNKVAVYDTDVFALLTTMMLLAALWIVFYLLRTARCPDAVPYRDAHAGPIWLRGGLVLFGICTLVMDVFKTGYYSSFFECQSAIKILHPIIQAVFVIVQTYFLWISAKDCIHTHLDLTRCGLMFTLATNLAIWMAAVVDESVHQAHSYSGSHGNTSHTRLNPDSKRAGGAAEEDPCLCSTAICQIFQQGYFYLYPFNIEYSLFASTMLYVMWKNVGRLLASTHGHGHTPSRVSLFRETFFAGPVLGLLLFVVGLAVFILYEVQVSGERGHTRQALVIYYSFNIVCLGLMTLVSLSGSVIYRFDRRAMDHHKNPTRTLDWALLMGAALGQYAISYYSIVAVVVGSPRDLQGALNLSHALLMIAQHTFQNVFIIESLHRGPPGAEPREMPPKEPCQGITFANLDAIRTLPSCPPTPRLVIPNLESPQEAVAIISAPRCHWRRRCLKDISLFLLLCNVILWIMPAFGARPHFSNTVEVDFYGYSLWAAIVNICLPFGIFYRMHAVSSLLEVYVLS | – | 2
mOTOP2 M374W (natural protein, Mus musculus, Otopetrin 2 (mOTOP2), Mus musculus, with the point mutation M374W on TM9; same construct as the wild-type channel; The general purification protocol removes His10-GFP with thrombin; also called mOTOP2 M374W loss-of-function mutant; source: HEK293F cells (pEZTBM vector, same construct as the wild type), purified) MSEELVPHPNESLPGPRASPREVWKKGGRLLSVLLAVNVLLLACTLISGGAFNKVAVYDTDVFALLTTMMLLAALWIVFYLLRTARCPDAVPYRDAHAGPIWLRGGLVLFGICTLVMDVFKTGYYSSFFECQSAIKILHPIIQAVFVIVQTYFLWISAKDCIHTHLDLTRCGLMFTLATNLAIWMAAVVDESVHQAHSYSGSHGNTSHTRLNPDSKRAGGAAEEDPCLCSTAICQIFQQGYFYLYPFNIEYSLFASTMLYVMWKNVGRLLASTHGHGHTPSRVSLFRETFFAGPVLGLLLFVVGLAVFILYEVQVSGERGHTRQALVIYYSFNIVCLGLMTLVSLSGSVIYRFDRRAMDHHKNPTRTLDVALLWGAALGQYAISYYSIVAVVVGSPRDLQGALNLSHALLMIAQHTFQNVFIIESLHRGPPGAEPREMPPKEPCQGITFANLDAIRTLPSCPPTPRLVIPNLESPQEAVAIISAPRCHWRRRCLKDISLFLLLCNVILWIMPAFGARPHFSNTVEVDFYGYSLWAAIVNICLPFGIFYRMHAVSSLLEVYVLS | – | 2
